Measured values from patent US20190241648A1 (STATEN BIOTECHNOLOGY B V, published 2019).
Ends that are not written are not given here.

How the values were obtained:
Test in all cases: cyclic peptide substitution array
ApoC3 peptide P69V = target: T1, ApoC3 peptide P69V (human, not fully specified; cyclic (thioether))
T1 peptide: DKFSEFWDLDVEV
Summary of the method: (§1)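 Peptide microarrays incubated with antibody samples, then stained with goat anti-human IgG (Fc) DyLight680 and anti-HA DyLight800 control antibodies, scanned at intensity 7/7 (red/green). Secondary-only pre-stain checked background binding; framing HA peptides served as quality control; substitution effects read as changes in spot intensity.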

ApoC3 peptide E70L = target: T2, ApoC3 peptide E70L (human, cyclic (thioether))
T2 peptide: DKFSEFWDLDPLV
Summary of the method: as §1

ApoC3 peptide W65G = target: T3, ApoC3 peptide W65G (human, not fully specified; cyclic (thioether))
T3 peptide: DKFSEFGDLDPEV
Summary of the method: as §1

ApoC3 peptide W65H = target: T4, ApoC3 peptide W65H (human, cyclic (thioether))
T4 peptide: DKFSEFHDLDPEV
Summary of the method: as §1

ApoC3 peptide K60N = target: T5, ApoC3 peptide K60N (human, cyclic (thioether))
T5 peptide: DNFSEFWDLDPEV
Summary of the method: as §1

ApoC3 peptide W65M = target: T6, ApoC3 peptide W65M (human, cyclic (thioether))
T6 peptide: DKFSEFMDLDPEV
Summary of the method: as §1

ApoC3 peptide K60D = target: T7, ApoC3 peptide K60D (human, thioether (positions not given here); not fully specified (bridges); also: cyclic (thioether), positions not given here)
T7 peptide: DDFSEFWDLDPEV
Summary of the method: as §1

ApoC3 peptide K60L = target: T8, ApoC3 peptide K60L (human, cyclic (thioether))
T8 peptide: DLFSEFWDLDPEV
Summary of the method: as §1

ApoC3 peptide E70S = target: T9, ApoC3 peptide E70S (human, cyclic (thioether))
T9 peptide: DKFSEFWDLDPSV
Summary of the method: as §1

ApoC3 peptide F61Q = target: T10, ApoC3 peptide F61Q (human, cyclic (thioether))
T10 peptide: DKQSEFWDLDPEV
Summary of the method: as §1

ApoC3 peptide F64H = target: T11, ApoC3 peptide F64H (human, thioether (positions not given here); not fully specified (bridges); also: cyclic (thioether), positions not given here)
T11 peptide: DKFSEHWDLDPEV
Summary of the method: as §1

ApoC3 peptide D68L = target: T12, ApoC3 peptide D68L (human, cyclic (thioether))
T12 peptide: DKFSEFWDLLPEV
Summary of the method: as §1

ApoC3 peptide F61W = target: T13, ApoC3 peptide F61W (human, cyclic (thioether))
T13 peptide: DKWSEFWDLDPEV
Summary of the method: as §1

ApoC3 peptide P69K = target: T14, ApoC3 peptide P69K (human, not fully specified; cyclic (thioether))
T14 peptide: DKFSEFWDLDKEV
Summary of the method: as §1

ApoC3 peptide D59M = target: T15, ApoC3 peptide D59M (human, thioether (positions not given here); not fully specified (C-terminus, bridges))
T15 peptide: MKFSEFWDLDPEV
Summary of the method: as §1

ApoC3 peptide L67R = target: T16, ApoC3 peptide L67R (human, thioether (positions not given here); not fully specified (bridges); also: thioether between a C-terminal Cys side chain and a modified N-terminus, the Cys is not in the chain)
T16 peptide: DKFSEFWDRDPEV
Summary of the method: as §1

ApoC3 peptide D59Q = target: T17, ApoC3 peptide D59Q (human, thioether (positions not given here); not fully specified (C-terminus, bridges); also: cyclised via thioether between a C-terminal Cys and a modified N-terminus, the Cys and the N-terminal …)
T17 peptide: QKFSEFWDLDPEV
Summary of the method: as §1

ApoC3 peptide L67H = target: T18, ApoC3 peptide L67H (human, thioether (positions not given here); not fully specified (bridges); also: thioether between a C-terminal Cys side chain and a modified N-terminus, the Cys is not in the chain)
T18 peptide: DKFSEFWDHDPEV
Summary of the method: as §1

ApoC3 peptide V71L = target: T19, ApoC3 peptide V71L (human, thioether (positions not given here); also: cyclic (thioether), ring places not given here)
T19 peptide: DKFSEFWDLDPEL
Summary of the method: as §1

ApoC3 peptide E70M = target: T20, ApoC3 peptide E70M (human, cyclic (thioether))
T20 peptide: DKFSEFWDLDPMV
Summary of the method: as §1

ApoC3 peptide S62P = target: T21, ApoC3 peptide S62P (human, thioether (positions not given here); also: cyclic (thioether), ring places not given here)
T21 peptide: DKFPEFWDLDPEV
Summary of the method: as §1

ApoC3 peptide V71G = target: T22, ApoC3 peptide V71G (human, thioether (positions not given here); also: cyclic (thioether), ring places not given here)
T22 peptide: DKFSEFWDLDPEG
Summary of the method: as §1

ApoC3 peptide D66N = target: T23, ApoC3 peptide D66N (human, not fully specified; cyclic (thioether))
T23 peptide: DKFSEFWNLDPEV
Summary of the method: as §1

ApoC3 peptide D68Y = target: T24, ApoC3 peptide D68Y (human, cyclic (thioether))
T24 peptide: DKFSEFWDLYPEV
Summary of the method: as §1

ApoC3 peptide F61P = target: T25, ApoC3 peptide F61P (human, cyclic (thioether))
T25 peptide: DKPSEFWDLDPEV
Summary of the method: as §1

ApoC3 peptide F64Y = target: T26, ApoC3 peptide F64Y (human, thioether (positions not given here); not fully specified (bridges); also: cyclic (thioether), positions not given here)
T26 peptide: DKFSEYWDLDPEV
Summary of the method: as §1

ApoC3 peptide D66C = target: T27, ApoC3 peptide D66C (human, not fully specified; cyclic (thioether))
T27 peptide: DKFSEFWCLDPEV
Summary of the method: as §1

ApoC3 peptide S62F = target: T28, ApoC3 peptide S62F (human, not fully specified; cyclic (thioether))
T28 peptide: DKFFEFWDLDPEV
Summary of the method: as §1

ApoC3 peptide F61H = target: T29, ApoC3 peptide F61H (human, cyclic (thioether))
T29 peptide: DKHSEFWDLDPEV
Summary of the method: as §1

ApoC3 peptide K60H = target: T30, ApoC3 peptide K60H (human, cyclic (thioether))
T30 peptide: DHFSEFWDLDPEV
Summary of the method: as §1

ApoC3 peptide P69F = target: T31, ApoC3 peptide P69F (human, not fully specified; cyclic (thioether))
T31 peptide: DKFSEFWDLDFEV
Summary of the method: as §1

B1: Llama antibody 5E5 (antibody, V domains shown)
VH: QLQLVESGGGLVQPGGSLRLSCAASGFTFGTYSMRWVRQVPRKALEWVSSISTDGGGTAYRDSVKGRFTISRDNAKNTLYLQMNNLKPEDTAIYYCVIAGYSDWGQGTQVTVSS
VL: ATMLTQSPGSLSVVPGESASISCKTSQGLVHSDGKTYFYWFLQKPGQSPQQLIYQVSNRASGVPDRFTGSGSGTDFTLKISGVKAEDAGVYYCAQGTYYPHTFGSGTRLEIK
notes: detected with goat anti-human IgG (Fc); also called mAb 5E5
- % of binding to wild-type peptide (ApoC3 peptide P69V): 55.2%
- % of binding to wild-type peptide (ApoC3 peptide E70L): 59.1%
- % of binding to wild-type peptide (ApoC3 peptide W65G): 0%
- % of binding to wild-type peptide (ApoC3 peptide W65H): 0%
- % of binding to wild-type peptide (ApoC3 peptide K60N): 153%
- % of binding to wild-type peptide (ApoC3 peptide W65M): 0%
- % of binding to wild-type peptide (ApoC3 peptide K60D): 200%
- % of binding to wild-type peptide (ApoC3 peptide K60L): 107%
- % of binding to wild-type peptide (ApoC3 peptide E70S): 55.2%
- % of binding to wild-type peptide (ApoC3 peptide F61Q): 75.6%
- % of binding to wild-type peptide (ApoC3 peptide F64H): 84.5%
- % of binding to wild-type peptide (ApoC3 peptide D68L): 0%
- % of binding to wild-type peptide (ApoC3 peptide F61W): 15.7%
- % of binding to wild-type peptide (ApoC3 peptide P69K): 20.7%
- % of binding to wild-type peptide (ApoC3 peptide D59M): 57.7%
- % of binding to wild-type peptide (ApoC3 peptide L67R): 15.4%
- % of binding to wild-type peptide (ApoC3 peptide D59Q): 68.3%
- % of binding to wild-type peptide (ApoC3 peptide L67H): 3.58%
- % of binding to wild-type peptide (ApoC3 peptide V71L): 90.6%
- % of binding to wild-type peptide (ApoC3 peptide E70M): 74%
- % of binding to wild-type peptide (ApoC3 peptide S62P): 0%
- % of binding to wild-type peptide (ApoC3 peptide V71G): 91.9%
- % of binding to wild-type peptide (ApoC3 peptide D66N): 0%
- % of binding to wild-type peptide (ApoC3 peptide D68Y): 0.16%
- % of binding to wild-type peptide (ApoC3 peptide F61P): 52.7%
- % of binding to wild-type peptide (ApoC3 peptide F64Y): 118%
- % of binding to wild-type peptide (ApoC3 peptide D66C): 10.3%
- % of binding to wild-type peptide (ApoC3 peptide S62F): 1.25%
- % of binding to wild-type peptide (ApoC3 peptide F61H): 12.1%
- % of binding to wild-type peptide (ApoC3 peptide K60H): 116%
- % of binding to wild-type peptide (ApoC3 peptide P69F): 11.6%
